The record followed here is patent US20250388666A1 (BRIGHAM AND WOMEN S HOSPITAL, published 2025).

In assay [1] the target is T1, CEACAM1 (Sino Biological) (human, UniProt P13688 35-428, limits assumed).
T1 construct: may be the same as CEACAM1-HIS; also called hCEACAM1; biotinylated soluble CEACAM1
T1 sequence: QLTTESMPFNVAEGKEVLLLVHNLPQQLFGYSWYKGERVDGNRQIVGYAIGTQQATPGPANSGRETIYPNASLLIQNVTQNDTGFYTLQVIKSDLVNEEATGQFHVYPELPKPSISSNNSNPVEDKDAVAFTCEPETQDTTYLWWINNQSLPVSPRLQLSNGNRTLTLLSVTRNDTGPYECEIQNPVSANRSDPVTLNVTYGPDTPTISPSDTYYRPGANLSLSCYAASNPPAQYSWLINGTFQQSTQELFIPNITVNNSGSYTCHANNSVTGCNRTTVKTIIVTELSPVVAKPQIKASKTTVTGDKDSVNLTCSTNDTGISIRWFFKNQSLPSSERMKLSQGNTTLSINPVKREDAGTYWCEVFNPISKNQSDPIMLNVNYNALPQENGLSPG
The experiment in a line: phage binding assay.

In assay [2] the target is T1, CEACAM1 (Sino Biological). The experiment in a line: SPR single-cycle. Put shortly:
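Humanized affinity-matured IgGs from crude supernatants captured on Protein A to ~100 RU, with CEACAM1 analyte injected at 25–100 nM (three-point, two-fold) in HBS-P+ without regeneration. 200 s association per injection, 300 s single dissociation; reference-channel and blank subtracted.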

For assay [3], the target named is T1, CEACAM1 (Sino Biological). In words: SPR multi-cycle, IgG on Protein A. The method, then: Multi-cycle kinetics analysis was performed on the twelve lead antibodies using a Biacore T200 instrument running Biacore T200 Evaluation Software V3.0.1 (Uppsala, Sweden) to establish an accurate affinity for CEACAM1. The purified antibodies were diluted to a concentration of […] in HBS-P+. At the start of each cycle, each antibody was captured on the Protein A surface to give an RL of ˜100 RU. Following capture, the surface was allowed to stabilize. Kinetic data was obtained using a flow rate of […] to minimize any potential mass transfer effects. For the kinetics analysis, CEACAM1 was used. Multiple repeats of the blank ([…]) and a repeat of a single concentration of the analyte were programmed into the kinetic run in order to check the stability of both the surface and analyte over the kinetic cycles. For kinetic analysis, a two-fold dilution range was selected from 200 to 3.125 nM CEACAM1. The association phase of CEACAM1 was monitored for 275 seconds and the dissociation phase was measured for 250 seconds. Regeneration of the Protein A surface was conducted using two injections of 10 mM glycine-HCL pH 1.5 at the end of each cycle.
The signal from the reference channel Fc1 was subtracted from that of Fc2, Fc3 and Fc4 to correct for differences in non-specific binding to a reference surface, and a global Rmax parameter was used in the 1-to-1 binding model. The relative KD was calculated by dividing the KD of the RSB02 Parent by that of the humanized and affinity matured variants on the same chip.

For assay [4], the target named is T2, CEACAM3 (Sino Biological) (human, UniProt P40198 35-155, limits assumed).
T2 construct: also called hCEACAM3
T2 sequence (looked up): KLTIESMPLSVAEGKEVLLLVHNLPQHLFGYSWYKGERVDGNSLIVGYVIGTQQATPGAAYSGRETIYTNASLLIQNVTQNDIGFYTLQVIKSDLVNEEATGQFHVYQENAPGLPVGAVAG
In words: binding ELISA on plate-coated CEACAM (0.5 µg/mL); antibody at 1.67, 0.062 and 0.0069 µg/mL; signal as % of parent IgG on CEACAM1 at 1.67 µg/mL on the same plate.

Assay [5] addresses T3, CEACAM5 (Sino Biological) (human, UniProt P06731 35-685).
T3 construct: also called hCEACAM5
T3 sequence (looked up): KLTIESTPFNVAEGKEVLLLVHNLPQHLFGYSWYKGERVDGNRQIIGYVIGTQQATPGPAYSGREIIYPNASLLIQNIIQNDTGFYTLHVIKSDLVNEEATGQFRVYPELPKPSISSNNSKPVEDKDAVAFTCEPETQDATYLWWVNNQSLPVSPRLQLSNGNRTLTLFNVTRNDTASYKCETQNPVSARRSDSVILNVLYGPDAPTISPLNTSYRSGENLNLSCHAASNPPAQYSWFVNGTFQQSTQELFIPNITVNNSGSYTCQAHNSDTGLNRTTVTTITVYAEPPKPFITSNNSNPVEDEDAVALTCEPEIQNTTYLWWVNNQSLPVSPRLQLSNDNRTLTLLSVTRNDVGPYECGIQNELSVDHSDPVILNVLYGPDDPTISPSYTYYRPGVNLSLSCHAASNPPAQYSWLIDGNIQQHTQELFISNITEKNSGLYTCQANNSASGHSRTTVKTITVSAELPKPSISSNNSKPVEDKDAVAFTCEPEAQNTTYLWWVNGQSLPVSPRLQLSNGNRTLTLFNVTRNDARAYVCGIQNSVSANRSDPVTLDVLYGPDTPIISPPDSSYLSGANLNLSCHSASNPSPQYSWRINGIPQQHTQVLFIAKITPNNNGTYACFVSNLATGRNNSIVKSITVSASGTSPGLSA
Described as above.

For assay [6], the target named is T4, CEACAM6 (Sino Biological) (human, UniProt P40199 35-320).
T4 construct: also called hCEACAM6
T4 sequence (looked up): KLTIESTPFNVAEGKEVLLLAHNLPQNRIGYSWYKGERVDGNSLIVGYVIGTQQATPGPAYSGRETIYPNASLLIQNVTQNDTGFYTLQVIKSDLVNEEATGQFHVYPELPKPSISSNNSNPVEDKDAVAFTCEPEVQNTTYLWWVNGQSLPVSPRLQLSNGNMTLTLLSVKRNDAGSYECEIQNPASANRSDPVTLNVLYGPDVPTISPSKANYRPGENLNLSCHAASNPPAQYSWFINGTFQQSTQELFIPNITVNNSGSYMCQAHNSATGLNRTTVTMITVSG
The description is as above.

Assay [7] addresses T2, CEACAM3 (Sino Biological). The assay is described as above. The source holds these as a separate data set.
The target in assay [8] is T3, CEACAM5 (Sino Biological). The description is as above. This is another data set of the same source.
The target of assay [9] is T4, CEACAM6 (Sino Biological). The assay is described as above. The source holds these as a separate data set.
The target in assay [10] is T2, CEACAM3 (Sino Biological). Described as above. This is another data set of the same source.

Substitutions are numbered along the chain they refer to. In names and notes the source's numbering stands. Read-outs that look alike come from different tables or passages of the source.

B1: parent VH2 N56Q/Vκ4 S27(f)A scFv displayed on phage (scFv)
scFv: EVQLLESGGGLVQPGGSLRLSCAASGFSFSDYYLYWVRQAPGKGLEWVATISVGGGQTSYADSVKGRFTISRDNSKNTLYLQMNSLRAEDTAMYYCTRGLYYGPAWFAYWGQGTLVTVSSGGGGSGGGGSGGGGSDIVMTQSPDSLAVSLGERATINCKSSQSLLNSANQKNYLAWYQQKPGQPPKLLIYFASTRESGVPDRFSGSGSGTDFTLTISSLQAEDVAVYYCQQHYSTPWTFGGGTKVEIK
notes: also called parent scFv hyper phage; parent M13 helper phage; not shown: C-terminal Flag tag and gene III fusion
As for B1, in assay [1], the binding result was “binds”.

B2: He3/L20 (antibody, IgG4, V domains shown)
VH: EVQLLESGGGLVQPGGSLRLSCAASGFSFSDYYLYWVRQAPGKGLEWVATISVGGGQTSYADSVKGRFTISRDNSKNTLYLQMNSLRAEDTAMYYCTRALTYGPAWLAYWGQGTLVTVSS
VL: DIVMTQSPDSLAVSLGERATINCKSSQSLLNSANQKNYLAWYQQKPGQPPKLLIYFASTRESGVPDRFSGSGSGTDFTLTISSLQAEDVAVYYCQSHFPYPLTFGGGTKVEIK
notes: IgG4 S241P, kappa; also called He3 / 20
For the molecule B2, in [2], the dissociation constant (Kd) (commonly the constant that tells how readily two partners part at equilibrium) amounted to 74 nM and the “fold better than Parent (KD)” value came out at 2.15 fold. In assay [3], binding was put at a Kd of 25.5 nM; the koff – broadly, the rate constant with which the complex falls apart – came to 0.0078 s⁻¹; the kon (usually the second-order rate constant of association) was determined as 306000 M⁻¹ s⁻¹; the “relative KD to Parent” value is 3.34 ratio. Besides, the binding result in [4] is reported as “no binding (tested: 1.67 µg/mL)”. The binding result in assay [5] was “no binding (tested: 1.67 µg/mL)”. Further, the binding result in assay [6] is reported as “no binding (tested: 1.67 µg/mL)”.

B3: Parent VH/L1 (antibody, IgG4, V domains shown)
VH: B2 VH with A99G, T101Y, L107F
VL: B2 VL with F98Y, Y100F, P101Y, L102Y
notes: IgG4 S241P, kappa; also called VHp/L1; VH2 N56Q / 1
With B3, in assay [2], the Kd came out at 41 nM and the “fold better than Parent (KD)” value was 3.87 fold. For the same molecule, in [3], the Kd came to 125 nM, the koff was 0.00413 s⁻¹, the kon was 33100 M⁻¹ s⁻¹ and the “relative KD to Parent” value was 0.68 ratio. In addition, the binding result in [7] was “no binding (tested: 1.67 µg/mL)”. The binding result in assay [8] is listed as “no binding (tested: 1.67 µg/mL)”. Also, the binding result in assay [9] is “no binding (tested: 1.67 µg/mL)”.

B4: He9/L6 (antibody, IgG4, V domains shown)
VH: B2 VH with T97A, L100M, T101Y, L107F
VL: B2 VL with F98Y, Y100F, P101S, L102F
notes: IgG4 S241P, kappa; also called He9 / 6
Consider B4, for which, in assay [2], the Kd is 22 nM and the “fold better than Parent (KD)” value was determined as 7.1 fold. In addition, in [3], the Kd was found to be 39.6 nM, the koff was found to be 0.00151 s⁻¹, the kon is 38100 M⁻¹ s⁻¹ and the “relative KD to Parent” value was found to be 4.82 ratio. In [10], the binding result is “no binding (tested: 1.67 µg/mL)”.
